Key:
purified protein = substrate: Cc1cc(=O)oc2cc(O[C@@H]3O[C@H](CO)[C@@H](O)[C@H](O)[C@@H]3O)ccc12; experiment: purified protein; format: biochemical, Bacteroides salyersiae; conditions: 80 mM MES pH 5.5, 160 mM NaCl, 25 °C
[1] = substrate: O=[N+]([O-])c1ccc(O[C@@H]2O[C@H](CO)[C@@H](O)[C@H](O)[C@@H]2O)cc1; experiment: stopped assay, p-nitrophenol absorbance; format: biochemical, Bacteroides salyersiae; conditions: 80 mM MES pH 5.5, 160 mM NaCl, 25 °C
From the text: stopped assay, p-nitrophenol absorbance on Bs164

B1: Bs164 (Bacteroides salyersiae CL02T12C01) (protein)
chain: ERISKQSTPFVGAQIFIEPGQTQEQIEQWFKLLAESNMTTCRIRMFGKYMKTPSGTYDFTLFDRAFKLADKYHIKVYATLFPDTEFTDVGGFKFPHSREHQKEVEDYIKNVVSHFSQYKNLAAWVLINEPGTPNLPFNEPFTKERFSDWKKEHNFSEYNEKGYPVLNFEKENFIIDYHNWYLNWLANQVRLYDKQHDLHVNPHNVFKLSGLYDFPTWRTFLNSLGGSAHASWHFGYFPRKAYTVAMSANAELIRSGAGELPWLMTELQGGNNLYSGANPLCPTAEEIIQWLWINFATEAKGGIFWSFNARSTAAEAGEWAMINFKNKSSDRLIAAATIGKFITENVKMMSNIKTLNSGISILYNHESMWVEAAQTRGKLNGNGRSIGAVMCSPLSYFEALSETGLQANFKEIKEFDFSLNDYTDQVIILSHQIALDNKVIKQLESFVEKGGTLIADGLTGYYDYQAHSTVVSGFALENLFGSYPIEYKIKENLFSLDFEKDNYKLPAHLWKGTIETSKATPIMDKEGECIACINQYGKGKVFWIPSPIALGARESKDFSELSKLTVSLLPNKILNDNPHFDKHYKDVMMKSFKSNGTMYSLIINKSASVQTVDIVGGKGKAFILFANKNAHSTANKLTISPEETVIIKWKNN
notes: tag cut by 3C protease for kinetics, His6-tagged for crystals
B1 gave a Km (purified protein) of 1.05 ± 0.08 mM, a kcat (purified protein) of 1.8 ± 0.05 s⁻¹ and a kcat/Km (purified protein) of 1700 ± 100 M⁻¹ s⁻¹. For the same protein, the Km [1] was 3.6 ± 0.8 mM, the kcat [1] was 40 ± 3 s⁻¹ and the kcat/Km [1] was 11000 ± 3000 M⁻¹ s⁻¹.

Reference: publication PMC7105311, “Structure and function of Bs164 β-mannosidase from Bacteroides salyersiae the founding member of glycoside hydrolase family GH164” (The Journal of Biological Chemistry, 2019)
